According to patent US20230079439A1, “Compositions and Methods for Enhancing Beta Cell Maturation, Health and Function” (THE REGENTS OF THE UNIVERSITY OF CALIFORNIA, priority 2016, published 2023):

B1: rNL2ED monomers: non-clustered recombinant neuroligin-2 extracellular domain (protein, UniProt Q62888 15-678, looked up)
extracellular domain: QRGGGGPGGGAPGGPGLGLGSLGEERFPVVNTAYGRVRGVRRELNNEILGPVVQFLGVPYATPPLGARRFQPPEAPASWPGVRNATTLPPACPQNLHGALPAIMLPVWFTDNLEAAATYVQNQSEDCLYLNLYVPTEDGPLTKKRDEATLNPPDTDIRDSGKKPVMLFLHGGSYMEGTGNMFDGSVLAAYGNVIVATLNYRLGVLGFLSTGDQAAKGNYGLLDQIQALRWLSENIAHFGGDPERITIFGSGAGASCVNLLILSHHSEGLFQKAIAQSGTAISSWSVNYQPLKYTRLLAAKVGCDREDSTEAVECLRRKSSRELVDQDVQPARYHIAFGPVVDGDVVPDDPEILMQQGEFLNYDMLIGVNQGEGLKFVEDSAESEDGVSASAFDFTVSNFVDNLYGYPEGKDVLRETIKFMYTDWADRDNGEMRRKTLLALFTDHQWVAPAVATAKLHADYQSPVYFYTFYHHCQAEGRPEWADAAHGDELPYVFGVPMVGATDLFPCNFSKNDVMLSAVVMTYWTNFAKTGDPNQPVPQDTKFIHTKPNRFEEVVWSKFNSKEKQYLHIGLKPRVRDNYRANKVAFWLELVPHLHNLHTELFTTTTRLPPYATRWPPRTPGPGTSGTRRPPPPATLPPESDIDLGPRAYDRFPGDSRDYSTELS
modifications: extracellular domain
notes: non-clustered recombinant neuroligin-2 extracellular domain
B2: Soluble neuroligin-2 extracellular domain: soluble protein that competes with endogenous, clustered neuroligin for binding to transcellular partners (protein, UniProt Q8NFZ4 15-677, looked up)
extracellular domain: QRGGGGPGGGAPGGPGLGLGSLGEERFPVVNTAYGRVRGVRRELNNEILGPVVQFLGVPYATPPLGARRFQPPEAPASWPGVRNATTLPPACPQNLHGALPAIMLPVWFTDNLEAAATYVQNQSEDCLYLNLYVPTEDGPLTKKRDEATLNPPDTDIRDPGKKPVMLFLHGGSYMEGTGNMFDGSVLAAYGNVIVATLNYRLGVLGFLSTGDQAAKGNYGLLDQIQALRWLSENIAHFGGDPERITIFGSGAGASCVNLLILSHHSEGLFQKAIAQSGTAISSWSVNYQPLKYTRLLAAKVGCDREDSAEAVECLRRKPSRELVDQDVQPARYHIAFGPVVDGDVVPDDPEILMQQGEFLNYDMLIGVNQGEGLKFVEDSAESEDGVSASAFDFTVSNFVDNLYGYPEGKDVLRETIKFMYTDWADRDNGEMRRKTLLALFTDHQWVAPAVATAKLHADYQSPVYFYTFYHHCQAEGRPEWADAAHGDELPYVFGVPMVGATDLFPCNFSKNDVMLSAVVMTYWTNFAKTGDPNQPVPQDTKFIHTKPNRFEEVVWSKFNSKEKQYLHIGLKPRVRDNYRANKVAFWLELVPHLHNLHTELFTTTTRLPPYATRWPPRPPAGAPGTRRPPPPATLPPEPEPEPGPRAYDRFPGDSRDYSTELS
modifications: extracellular domain

How the values were obtained:
[1] = tested on: human islet cells; assay: GSIS of dissociated human islet cells after clustered rNL2ED-Fc; assay type: cell-based; conditions: added 4 hours prior to GSIS
Procedure: FIG. 24 depicts insulin secretion by human islet cells after incubation with cross-linked, clustered rNL2ED-Fc. Indicated volume of solution containing cross-linked rNL2ED-Fc (90 μg/ml) or vehicle alone was added to equal numbers of dissociated human islet cells 4 hours prior to determination of GSIS. Stimulated insulin secretion is shown. […] (n=6 wells, representative of 3 separate experiments).
A recombinant protein with the extracellular domain of neuroligin-2 fused to an IgG Fc domain (rNL2ED-Fc) has been made. In contrast to the peptidomimetic agents, which are modeled on the neurexin binding site, this protein should be able to interact with all extracellular neuroligin-2 binding partners. Chemically cross-linked clusters incorporating this protein are made. Clustered complexes that sufficiently mimic endogenous clustered neuroligin-2 promote β-cell maturation and function to a greater degree than the peptidomimetic-based reagents. […] In contrast, rNL2ED monomers had no effect (not shown).

[2] = tested on: rat islets; assay: Insulin secretion by rat islets with soluble neuroligin-2; assay type: cell-based; conditions: 20 mM glucose, read-out: half-maximal inhibition of insulin secretion
Procedure: Soluble neuroligin-2 extracellular domain was added to cultures of rat islets at the indicated concentrations. Insulin secretion was then measured (20 mM glucose). […] The soluble protein competes with endogenous, clustered neuroligin for binding to transcellular partners.

Row | Molecule | stimulated insulin secretion by human β-cells [1] | IC50 [2]
1 | B1 | had no effect | 
2 | B2 |  | 9 nM
